Source: publication doi:10.1101/2023.06.20.545791 (bioRxiv, 2023)
Ends that are not written are not given here.

T1: IRE1α lumenal domain (IRE1αLD) (human, UniProt O75460 24-443)
T1 sequence: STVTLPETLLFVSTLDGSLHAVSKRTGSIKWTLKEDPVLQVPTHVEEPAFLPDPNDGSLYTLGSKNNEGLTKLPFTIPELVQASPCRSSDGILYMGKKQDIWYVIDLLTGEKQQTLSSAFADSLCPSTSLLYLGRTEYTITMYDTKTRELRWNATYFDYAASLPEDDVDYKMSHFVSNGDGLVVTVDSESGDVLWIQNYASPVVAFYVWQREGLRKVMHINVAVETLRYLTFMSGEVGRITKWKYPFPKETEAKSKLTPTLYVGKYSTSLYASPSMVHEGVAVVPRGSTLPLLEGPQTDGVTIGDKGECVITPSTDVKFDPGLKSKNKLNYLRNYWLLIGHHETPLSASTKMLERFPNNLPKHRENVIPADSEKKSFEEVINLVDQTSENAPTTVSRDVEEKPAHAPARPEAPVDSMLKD


Experiments:
[1] = biological target: T1, IRE1α lumenal domain (IRE1αLD); test: […]
[2] = biological target: T1, IRE1α lumenal domain (IRE1αLD); test: […]; remark: listed apart in the source
[3] = biological target: T1, IRE1α lumenal domain (IRE1αLD); test: fluorescence polarisation

| Binder | binding result [1] | other results |
| --- | --- | --- |
| IYGWYRVHFGVLDEQLHR [CTxA1_(I124-R141) peptide] | – | Kd [1]: 44 ± 5 µM |
| IYGWYRVNF [heat-labile enterotoxin (LTx) peptide 124-132] | binds | – |
| YWLLIGHHETPL (not fully specified (N-terminus)) [IRE1α_(Y358-L369) peptide] | – | Ki [2]: 220 ± 30 µM; Kd [3]: 190 ± 20 µM |
| IYGWYRVHF [CTxA1_(I124-F132) peptide] | binds | – |
| IHFYSKWYIR [SARS-CoV2 ORF8 peptide 39-48] | binds | – |
